# Laboratory results taken from patent US20120328625A1.
# Legend:
# [1] = target: Shh-N in conditioned medium (human) (UniProt Q15465); experiment: cell-based or functional assay
# [2] = target: biotinylated human Shh (human) (UniProt Q15465); experiment: ELISA, biotin-Shh coated at 500 ng/ml on neutravidin; antibody 1 ug/ml
# [3] = target: full length human Shh expressed on the cell surface (human) (UniProt Q15465); experiment: flow cytometry, 293T cells transiently transfected with human Shh; antibody 0.02 ug/ml
# [4] = target: full length human Shh expressed on the cell surface (human) (UniProt Q15465); experiment: flow cytometry, transfected against parental 293T cells; antibody 0.2 ug/ml
# [5] = target: full length human Shh expressed on the cell surface (human) (UniProt Q15465); experiment: flow cytometry, 293T cells transiently transfected with human Shh; antibody 0.2 ug/ml
# [6] = target: full length human Shh expressed on the cell surface (human) (UniProt Q15465); experiment: FMAT, antibody 10 µg/ml on 293T cells transiently expressing human Shh
# [7] = target: full length human Shh expressed on the cell surface (human) (UniProt Q15465); experiment: flow cytometry, antibody 2 µg/ml, 293T cells transiently expressing human Shh
# [8] = target: full length human Shh expressed on the cell surface (human) (UniProt Q15465); experiment: flow cytometry, transfected against parental 293T cells; antibody 2 ug/ml
# [9] = target: full length human Shh expressed on the cell surface (human) (UniProt Q15465); experiment: flow cytometry, transfected against parental 293T cells; antibody 0.02 ug/ml
# [10] = target: full length human Shh expressed on the cell surface (human) (UniProt Q15465); experiment: flow cytometry, 293T cells transiently transfected with human Shh; antibody 2 ug/ml
# [11] = target: full length human Shh expressed on the cell surface (human) (UniProt Q15465); experiment: flow cytometry, transfected against parental 293T cells
# [12] = target: full length human Shh expressed on the cell surface (human) (UniProt Q15465); experiment: cell-based or functional assay
substance,measurement,setting,value
5E1 (antibody),"IC50, inhibition of osteoblast differentiation (alkaline phosphatase) of C3H10T1/2 cells",[1],2.9 nM
"rat anti-Shh antibody (cat# MAB4641, R&D Systems, Inc.)",OD,[2],4.81 OD
same,X Geo Mean (Transients),[3],28.5
same,Ratio,[4],106
same,X Geo Mean (Transients),[5],221
same,FL1 X COUNT,[6],1.47e+06
same,X Geo Mean (Transients),[7],3
same,Ratio,[8],443
same,Ratio,[9],13.7
same,X Geo Mean (Transients),[10],965
same,Ratio,[11],0.7
huIgG2/4 (antibody),"% Inhibition of Gli1 reporter, Co-Culture N = 1, 20 µg/ml",[12],18%
same,"% Inhibition of Gli1 reporter, Co-Culture N = 2, 20 µg/ml",[12],7%
same,"% Inhibition of Gli1 reporter, Co-Culture N = 3, 20 µg/ml",[12],2%
same,"% Inhibition of Gli1 reporter, Conditioned Media N = 1, 20 µg/ml",[1],2%
same,"% Inhibition of Gli1 reporter, Conditioned Media N = 2, 20 µg/ml",[1],23%
